# In US20220064329A1 (Novo Nordisk, published 2022):
# T1: recombinant human activated Factor VII (FVIIa) (human, UniProt P08709 61-212; P08709 213-466, ten glutamate residues of the Gla domain may be gamma-carboxylated)
# T1 construct: chains tethered by a disulfide bond; also called Factor VIIa; rFVIIa
# T1 sequence 1: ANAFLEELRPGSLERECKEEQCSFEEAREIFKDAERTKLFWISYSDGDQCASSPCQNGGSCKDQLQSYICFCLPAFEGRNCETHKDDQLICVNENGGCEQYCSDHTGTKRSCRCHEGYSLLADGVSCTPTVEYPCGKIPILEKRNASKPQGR
# T1 sequence 2: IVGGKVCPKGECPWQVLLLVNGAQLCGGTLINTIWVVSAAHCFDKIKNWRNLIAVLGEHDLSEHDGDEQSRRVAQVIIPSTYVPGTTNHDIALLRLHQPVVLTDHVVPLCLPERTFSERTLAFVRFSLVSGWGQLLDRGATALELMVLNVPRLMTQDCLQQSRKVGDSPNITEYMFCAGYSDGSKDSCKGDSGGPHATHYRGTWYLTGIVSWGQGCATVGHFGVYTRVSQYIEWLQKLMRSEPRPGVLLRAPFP
# Molecular target: T1, recombinant human activated Factor VII …
# Assay: BLI (Fortebio)
row,Kd [nM],Binder
1,1.3,"VH SEQ ID NO 562 / VL SEQ ID NO 342 (antibody, IgG4, V domains shown, humanized 11F2; IgG4 S228P/kappa) VH: QVQLQESGPGLVKPSDTLSLTCAVSGYSISSDSAWSWIRQPPGKGLEWIGYIQYSGSTNYNPSLKSRVTMSRDTSKNQFSLKLSSVTALDTAVYYCARSVNYYGNSFAVGPWGQGTLVTVSS VL: EIVLTQSPATLSLSPGERATLSCRASQGISDYLHWYQQKPGQAPRLLIKYTSQPATGIPARFSGSGSGRDFTLTISSLEPEDFAVYYCQNGHSFPLTFGAGTKLELK"
2,1.1,"VH SEQ ID NO 562 / VL SEQ ID NO 502 (antibody, IgG4, V domains shown, humanized 11F2; IgG4 S228P/kappa) VH: QVQLQESGPGLVKPSDTLSLTCAVSGYSISSDSAWSWIRQPPGKGLEWIGYIQYSGSTNYNPSLKSRVTMSRDTSKNQFSLKLSSVTALDTAVYYCARSVNYYGNSFAVGPWGQGTLVTVSS VL: EIVLTQSPATLSLSPGERATLSCRASQGVSDYLHWYQQKPGQAPRLLIKYTSQPATGIPARFSGSGSGTDFTLTISSLEPEDFAVYYCQNGHSFPLTFGQGTKLEIK"
3,1.4,"VH SEQ ID NO 562 / VL SEQ ID NO 462 (antibody, IgG4, V domains shown, humanized 11F2; IgG4 S228P/kappa) VH: QVQLQESGPGLVKPSDTLSLTCAVSGYSISSDSAWSWIRQPPGKGLEWIGYIQYSGSTNYNPSLKSRVTMSRDTSKNQFSLKLSSVTALDTAVYYCARSVNYYGNSFAVGPWGQGTLVTVSS VL: EIVLTQSPATLSLSPGERATLSCRASQGVSDYLHWYQQKPGQAPRLLIKYASQPATGIPARFSGSGSGTDFTLTISSLEPEDFAVYYCQNGHSFPLTFGAGTKLEIK"
4,1.4,"VH SEQ ID NO 562 / VL SEQ ID NO 470 (antibody, IgG4, V domains shown, humanized 11F2; IgG4 S228P/kappa) VH: QVQLQESGPGLVKPSDTLSLTCAVSGYSISSDSAWSWIRQPPGKGLEWIGYIQYSGSTNYNPSLKSRVTMSRDTSKNQFSLKLSSVTALDTAVYYCARSVNYYGNSFAVGPWGQGTLVTVSS VL: EIVLTQSPATLSLSPGERATLSCRASQGVSDYLHWYQQKPGQAPRLLIKYASQPATGIPARFSGSGSGTDFTLTISSLEPEDFAVYYCQNGHSFPLTFGQGTKLEIK"
5,1.2,"VH SEQ ID NO 562 / VL SEQ ID NO 382 (antibody, IgG4, V domains shown, humanized 11F2; IgG4 S228P/kappa) VH: QVQLQESGPGLVKPSDTLSLTCAVSGYSISSDSAWSWIRQPPGKGLEWIGYIQYSGSTNYNPSLKSRVTMSRDTSKNQFSLKLSSVTALDTAVYYCARSVNYYGNSFAVGPWGQGTLVTVSS VL: EIVLTQSPATLSLSPGERATLSCRASQGLSDYLHWYQQKPGEAPRLLIKYASQPATGIPARFSGSGSGTDFTLTISSLEPEDFAVYYCQNGHSFPLTFGQGTKLEIK"
6,1.4,"VH SEQ ID NO 562 / VL SEQ ID NO 454 (antibody, IgG4, V domains shown, humanized 11F2; IgG4 S228P/kappa) VH: QVQLQESGPGLVKPSDTLSLTCAVSGYSISSDSAWSWIRQPPGKGLEWIGYIQYSGSTNYNPSLKSRVTMSRDTSKNQFSLKLSSVTALDTAVYYCARSVNYYGNSFAVGPWGQGTLVTVSS VL: EIVLTQSPATLSLSPGERATLSCRASQGVSDYLHWYQQKPGEAPRLLIKYASQPATGIPARFSGSGSGTDFTLTISSLEPEDFAVYYCQNGHSFPLTFGQGTKLEIK"
7,11,"VH SEQ ID NO 562 / VL SEQ ID NO 438 (antibody, IgG4, V domains shown, humanized 11F2; IgG4 S228P/kappa) VH: QVQLQESGPGLVKPSDTLSLTCAVSGYSISSDSAWSWIRQPPGKGLEWIGYIQYSGSTNYNPSLKSRVTMSRDTSKNQFSLKLSSVTALDTAVYYCARSVNYYGNSFAVGPWGQGTLVTVSS VL: EIVLTQSPATLSLSPGERATLSCRASQGVSDYLAWYQQKPGQAPRLLIKYASQPATGIPARFSGSGSGTDFTLTISSLEPEDVAVYYCQNGHSFPLTFGQGTKLEIK"
8,2.6,"VH SEQ ID NO 562 / VL SEQ ID NO 478 (antibody, IgG4, V domains shown, humanized 11F2; IgG4 S228P/kappa) VH: QVQLQESGPGLVKPSDTLSLTCAVSGYSISSDSAWSWIRQPPGKGLEWIGYIQYSGSTNYNPSLKSRVTMSRDTSKNQFSLKLSSVTALDTAVYYCARSVNYYGNSFAVGPWGQGTLVTVSS VL: EIVLTQSPATLSLSPGERATLSCRASQGVSDYLHWYQQKPGQAPRLLIKYASQPATGIPARFSGSGSGTDFTLTISSLEPEDFAVYYCQQGHSFPLTFGQGTKLEIK"
9,7.9,"VH SEQ ID NO 562 / VL SEQ ID NO 430 (antibody, IgG4, V domains shown, humanized 11F2; IgG4 S228P/kappa) VH: QVQLQESGPGLVKPSDTLSLTCAVSGYSISSDSAWSWIRQPPGKGLEWIGYIQYSGSTNYNPSLKSRVTMSRDTSKNQFSLKLSSVTALDTAVYYCARSVNYYGNSFAVGPWGQGTLVTVSS VL: EIVLTQSPATLSLSPGERATLSCRASQGVSDYLAWYQQKPGQAPRLLIKYASQPATGIPARFSGSGSGTDFTLTISSLEPEDFGVYYCQNGHSFPLTFGQGTKLEIK"
10,1.6,"VH SEQ ID NO 562 / VL SEQ ID NO 494 (antibody, IgG4, V domains shown, humanized 11F2; IgG4 S228P/kappa) VH: QVQLQESGPGLVKPSDTLSLTCAVSGYSISSDSAWSWIRQPPGKGLEWIGYIQYSGSTNYNPSLKSRVTMSRDTSKNQFSLKLSSVTALDTAVYYCARSVNYYGNSFAVGPWGQGTLVTVSS VL: EIVLTQSPATLSLSPGERATLSCRASQGVSDYLHWYQQKPGQAPRLLIKYASQPATGIPARFSGSGSGTDFTLTISSLEPEDVAVYYCQNGHSFPLTFGQGTKLEIK"
11,8.8,"VH SEQ ID NO 562 / VL SEQ ID NO 414 (antibody, IgG4, V domains shown, humanized 11F2; IgG4 S228P/kappa) VH: QVQLQESGPGLVKPSDTLSLTCAVSGYSISSDSAWSWIRQPPGKGLEWIGYIQYSGSTNYNPSLKSRVTMSRDTSKNQFSLKLSSVTALDTAVYYCARSVNYYGNSFAVGPWGQGTLVTVSS VL: EIVLTQSPATLSLSPGERATLSCRASQGVSDYLAWYQQKPGQAPRLLIKYASQPATGIPARFSGSGSGTDFTLTISSLEPEDFAVYYCQNGHSFPLTFGQGTKLEIK"
12,7.7,"VH SEQ ID NO 562 / VL SEQ ID NO 406 (antibody, IgG4, V domains shown, humanized 11F2; IgG4 S228P/kappa) VH: QVQLQESGPGLVKPSDTLSLTCAVSGYSISSDSAWSWIRQPPGKGLEWIGYIQYSGSTNYNPSLKSRVTMSRDTSKNQFSLKLSSVTALDTAVYYCARSVNYYGNSFAVGPWGQGTLVTVSS VL: EIVLTQSPATLSLSPGERATLSCRASQGVSDYLAWYQQKPGQAPRLLIKYASQPATGIPARFSGSGSGTDFTLTISSLEPEDFAVYYCQNGHSFPLTFGAGTKLEIK"
13,18,"VH SEQ ID NO 562 / VL SEQ ID NO 422 (antibody, IgG4, V domains shown, humanized 11F2; IgG4 S228P/kappa) VH: QVQLQESGPGLVKPSDTLSLTCAVSGYSISSDSAWSWIRQPPGKGLEWIGYIQYSGSTNYNPSLKSRVTMSRDTSKNQFSLKLSSVTALDTAVYYCARSVNYYGNSFAVGPWGQGTLVTVSS VL: EIVLTQSPATLSLSPGERATLSCRASQGVSDYLAWYQQKPGQAPRLLIKYASQPATGIPARFSGSGSGTDFTLTISSLEPEDFAVYYCQQGHSFPLTFGQGTKLEIK"
14,0.95,"VH SEQ ID NO 562 / VL SEQ ID NO 358 (antibody, IgG4, V domains shown, humanized 11F2; IgG4 S228P/kappa) VH: QVQLQESGPGLVKPSDTLSLTCAVSGYSISSDSAWSWIRQPPGKGLEWIGYIQYSGSTNYNPSLKSRVTMSRDTSKNQFSLKLSSVTALDTAVYYCARSVNYYGNSFAVGPWGQGTLVTVSS VL: EIVLTQSPATLSLSPGERATLSCRASQGISDYLHWYQQKPGQAPRLLIKYTSQPATGIPARFSGSGSGTDFTLTISSLEPEDFAVYYCQNGHSFPLTFGQGTKLEIK"
15,0.93,"VH SEQ ID NO 562 / VL SEQ ID NO 350 (antibody, IgG4, V domains shown, humanized 11F2; IgG4 S228P/kappa) VH: QVQLQESGPGLVKPSDTLSLTCAVSGYSISSDSAWSWIRQPPGKGLEWIGYIQYSGSTNYNPSLKSRVTMSRDTSKNQFSLKLSSVTALDTAVYYCARSVNYYGNSFAVGPWGQGTLVTVSS VL: EIVLTQSPATLSLSPGERATLSCRASQGISDYLHWYQQKPGQAPRLLIKYTSQPATGIPARFSGSGSGTDFTLTISSLEPEDFAVYYCQNGHSFPLTFGAGTKLELK"
16,1.3,"VH SEQ ID NO 562 / VL SEQ ID NO 486 (antibody, IgG4, V domains shown, humanized 11F2; IgG4 S228P/kappa) VH: QVQLQESGPGLVKPSDTLSLTCAVSGYSISSDSAWSWIRQPPGKGLEWIGYIQYSGSTNYNPSLKSRVTMSRDTSKNQFSLKLSSVTALDTAVYYCARSVNYYGNSFAVGPWGQGTLVTVSS VL: EIVLTQSPATLSLSPGERATLSCRASQGVSDYLHWYQQKPGQAPRLLIKYASQPATGIPARFSGSGSGTDFTLTISSLEPEDFGVYYCQNGHSFPLTFGQGTKLEIK"
17,8.3,"VH SEQ ID NO 562 / VL SEQ ID NO 366 (antibody, IgG4, V domains shown, humanized 11F2; IgG4 S228P/kappa) VH: QVQLQESGPGLVKPSDTLSLTCAVSGYSISSDSAWSWIRQPPGKGLEWIGYIQYSGSTNYNPSLKSRVTMSRDTSKNQFSLKLSSVTALDTAVYYCARSVNYYGNSFAVGPWGQGTLVTVSS VL: EIVLTQSPATLSLSPGERATLSCRASQGLSDYLAWYQQKPGEAPRLLIKYASQPATGIPARFSGSGSGTDFTLTISSLEPEDFAVYYCQNGHSFPLTFGQGTKLEIK"
18,13,"VH SEQ ID NO 570 / VL SEQ ID NO 310 (antibody, IgG4, V domains shown, humanized 11F2; IgG4 S228P/kappa) VH: QVQLQESGPGLVKPSDTLSLTCAVSGYSISSDSAWSWIRQPPGKGLEWIGYIQYSGSTNYNPSLKSRVTMSRDTSKNQFSLKLSSVTAADTAVYYCARSVNYYGNSFAVGPWGQGTLVTVSS VL: EIVLTQSPATLSLSPGERATLSCRASQGISDYLAWYQQKPGQAPRLLIKYASQPATGIPARFSGSGSGTDFTLTISSLEPEDFAVYYCQNGHSFPLTFGQGTKLEIK"
19,10,"VH SEQ ID NO 562 / VL SEQ ID NO 390 (antibody, IgG4, V domains shown, humanized 11F2; IgG4 S228P/kappa) VH: QVQLQESGPGLVKPSDTLSLTCAVSGYSISSDSAWSWIRQPPGKGLEWIGYIQYSGSTNYNPSLKSRVTMSRDTSKNQFSLKLSSVTALDTAVYYCARSVNYYGNSFAVGPWGQGTLVTVSS VL: EIVLTQSPATLSLSPGERATLSCRASQGVSDYLAWYQQKPGEAPRLLIKYASQPATGIPARFSGSGSGTDFTLTISSLEPEDFAVYYCQNGHSFPLTFGQGTKLEIK"
20,0.83,"VH SEQ ID NO 570 / VL SEQ ID NO 318 (antibody, IgG4, V domains shown, humanized 11F2; IgG4 S228P/kappa) VH: QVQLQESGPGLVKPSDTLSLTCAVSGYSISSDSAWSWIRQPPGKGLEWIGYIQYSGSTNYNPSLKSRVTMSRDTSKNQFSLKLSSVTAADTAVYYCARSVNYYGNSFAVGPWGQGTLVTVSS VL: EIVLTQSPATLSLSPGERATLSCRASQGISDYLHWYQQKPGEAPRLLIKYTSQPATGIPARFSGSGSGTDFTLTISSLEPEDFAVYYCQNGHSFPLTFGQGTKLEIK"
